The values that follow come from US20020157126A1 (published 2002).

For orientation: Kd means the free concentration of one partner at which half of the binding sites on the other are occupied at equilibrium, for simple one-to-one binding. As usually defined, the Ki is a measure of affinity in units of concentration, obtained from inhibition or displacement. The low end stands for tighter binding, the high end for weaker binding.

In assay [1] the target is GDF-8 receptor (cell surface binding proteins) on L6 myoblasts. The assay can be described thus: receptor-ligand binding assay with I-125 labeled GDF-8 on myoblast cells.
For assay [2], the target named is T1, myostatin mature C-terminal dimer (purified from conditioned medium of CHO cells) (UniProt O08689 268-376, limits assumed, radio-iodinated (chloramine T method) when used as the labeled ligand).
T1 construct: mature; also called GDF-8; mature C-terminal peptide
T1 sequence (looked up): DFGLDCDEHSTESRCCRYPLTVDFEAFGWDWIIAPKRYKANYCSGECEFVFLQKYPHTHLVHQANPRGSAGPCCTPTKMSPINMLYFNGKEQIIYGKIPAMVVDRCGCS
The assay can be described thus: inhibition of labeled myostatin binding to Act RIIB-transfected COS-7 cells, 4 °C; reference is the Ki of follistatin.

In assay [3] the target is T1, myostatin mature C-terminal dimer …. The assay can be described thus: inhibition of labeled myostatin binding to Act RIIB-transfected COS-7 cells, 4 °C. The protocol: Receptor binding. Purified myostatin was radioiodinated using the chloramine T method (Frolik, C. A., Wakefield, L. M., Smith, D. M. & Sporn, M. B. (1984) J Biol Chem 259, 10995-11000). COS-7 cells grown in 6 or 12 well plates were transfected with 1-2 μg pCMV5 or pCMV5/receptor construct using lipofectamine (Gibco, Rockville, Md.). Crosslinking experiments were carried out 2 days post transfection as described (Franzén, P., ten Dijke, P., Ichijo, H., Yamashita, H., Schultz, P., Heldin, C.-H. & Miyazono, K. (1993) Cell 75, 681-692). For quantitative receptor binding assays, cell monolayers were washed twice with PBS containing 1 mg/ml BSA and incubated with labeled myostatin in the presence or absence of various concentrations of unlabeled myostatin, pro peptide, or follistatin at 4° C. Cells were then washed 3 times with the same buffer, lysed in 0.5N NaOH, and counted in a gamma counter. Specific binding was calculated as the difference in bound myostatin between cells transfected with Act RIIB and cells transfected with vector.
The effect of the pro peptide and follistatin in vitro was then studied. Both the myostatin pro peptide and follistatin were capable of blocking the binding of the C-terminal dimer to Act RIIB. […]

On to “recombinant human GDF-8 (rhGDF-8) homodimer (from UniProt O14793 267-374) (ligand)”, for which the dissociation constant (Kd) in assay [1] is 0.37 nM.
Molecule “myostatin prodomain peptide (purified from CHO cell conditioned medium, HPLC fractions 35-37) (from UniProt O08689 25-267)” came in with a fold Ki relative to follistatin in assay [2] of 50 fold.

B1: follistatin (other, UniProt P19883-2 30-317, looked up)
chain: GNCWLRQAKNGRCQVLYKTELSKEECCSTGRLSTSWTEEDVNDNTLFKWMIFNGGAPNCIPCKETCENVDCGPGKKCRMNKKNKPRCVCAPDCSNITWKGPVCGLDGKTYRNECALLKARCKEQPELEVQYQGRCKKTCRDVFCPGSSTCVVDQTNNAYCVTCNRICPEPASSEQYLCGNDGVTYSSACHLRKATCLLGRSIGLAYEGKCIKAKSCEDIQCTGGKKCLWDFKVGRGRCSLCDELCPDSKSDEPVCASDNATYASECAMKEAACSSGVLLEVKHSGSCN
Regarding B1, in assay [3], the inhibition constant (Ki) was ~0.47 nM.
